B1: Staphylococcal nuclease domain-containing protein 1 (Homo sapiens), Q7KZF4 (parent)
chain: MASSAQSGGSSGGPAVPTVQRGIIKMVLSGCAIIVRGQPRGGPPPERQINLSNIRAGNLARRAAATQPDAKDTPDEPWAFPAREFLRKKLIGKEVCFTIENKTPQGREYGMIYLGKDTNGENIAESLVAEGLATRREGMRANNPEQNRLSECEEQAKAAKKGMWSEGNGSHTIRDLKYTIENPRHFVDSHHQKPVNAIIEHVRDGSVVRALLLPDYYLVTVMLSGIKCPTFRREADGSETPEPFAAEAKFFTESRLLQRDVQIILESCHNQNILGTILHPNGNITELLLKEGFARCVDWSIAVYTRGAEKLRAAERFAKERRLRIWRDYVAPTANLDQKDKQFVAKVMQVLNADAIVVKLNSGDYKTIHLSSIRPPRLEGENTQDKNKKLRPLYDIPYMFEAREFLRKKLIGKKVNVTVDYIRPASPATETVPAFSERTCATVTIGGINIAEALVSKGLATVIRYRQDDDQRSSHYDELLAAEARAIKNGKGLHSKKEVPIHRVADISGDTQKAKQFLPFLQRAGRSEAVVEYVFSGSRLKLYLPKETCLITFLLAGIECPRGARNLPGLVQEGEPFSEEATLFTKELVLQREVEVEVESMDKAGNFIGWLHIDGANLSVLLVEHALSKVHFTAERSSYYKSLLSAEEAAKQKKEKVWAHYEEQPVEEVMPVLEEKERSASYKPVFVTEITDDLHFYVQDVETGTQLEKLMENMRNDIASHPPVEGSYAPRRGEFCIAKFVDGEWYRARVEKVESPAKIHVFYIDYGNREVLPSTRLGTLSPAFSTRVLPAQATEYAFAFIQVPQDDDARTDAVDSVVRDIQNTQCLLNVEHLSAGCPHVTLQFADSKGDVGLGLVKEGLVMVEVRKEKQFQKVITEYLNAQESAKSARLNLWRYGDFRADDADEFGYSR

Variants of: B1
Settings: with piwl1_human PIWIL1, Q96J94
Sequence of piwl1_human PIWIL1, Q96J94 (Q96J94 whole entry): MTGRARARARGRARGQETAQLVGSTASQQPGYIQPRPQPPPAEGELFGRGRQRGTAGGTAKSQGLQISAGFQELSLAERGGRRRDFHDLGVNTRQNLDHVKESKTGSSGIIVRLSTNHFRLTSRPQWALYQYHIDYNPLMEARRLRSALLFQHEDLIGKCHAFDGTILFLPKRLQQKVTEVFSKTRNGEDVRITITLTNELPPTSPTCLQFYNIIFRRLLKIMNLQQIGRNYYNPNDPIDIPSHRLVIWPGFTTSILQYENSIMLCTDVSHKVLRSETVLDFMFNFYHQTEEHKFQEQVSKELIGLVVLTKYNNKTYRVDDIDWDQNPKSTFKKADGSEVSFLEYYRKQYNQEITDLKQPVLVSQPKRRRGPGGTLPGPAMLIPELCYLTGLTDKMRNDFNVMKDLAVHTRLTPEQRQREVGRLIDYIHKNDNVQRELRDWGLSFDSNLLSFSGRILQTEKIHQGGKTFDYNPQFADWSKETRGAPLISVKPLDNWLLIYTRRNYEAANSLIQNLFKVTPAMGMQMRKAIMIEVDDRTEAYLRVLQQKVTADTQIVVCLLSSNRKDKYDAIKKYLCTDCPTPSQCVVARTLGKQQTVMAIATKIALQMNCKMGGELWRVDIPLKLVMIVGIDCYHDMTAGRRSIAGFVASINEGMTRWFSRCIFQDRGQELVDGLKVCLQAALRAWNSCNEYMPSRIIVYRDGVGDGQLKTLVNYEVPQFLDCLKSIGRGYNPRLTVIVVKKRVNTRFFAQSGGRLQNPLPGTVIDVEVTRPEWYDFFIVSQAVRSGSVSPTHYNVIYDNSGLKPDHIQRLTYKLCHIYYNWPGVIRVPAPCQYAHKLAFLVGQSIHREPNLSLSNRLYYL

Variant | effect of a mutation on the interaction
F740L | decreasing interaction
Y763L | decreasing interaction
Y746L | decreasing interaction strength

More lines, now with the values ahead:

effect of a mutation on the interaction | Variant
disrupting interaction | N768R
decreasing interaction | N768Q
decreasing interaction | Y766L

Source: IntAct's records for PubMed 20937909
